Test results: PMC7173111

Biological target: HBc-YFP fusion protein (Hepatitis B virus) (UniProt P03146)
Test: FRET or BRET

Sequence of UniProt P03146 (P03146 whole entry, the tested form may be a part): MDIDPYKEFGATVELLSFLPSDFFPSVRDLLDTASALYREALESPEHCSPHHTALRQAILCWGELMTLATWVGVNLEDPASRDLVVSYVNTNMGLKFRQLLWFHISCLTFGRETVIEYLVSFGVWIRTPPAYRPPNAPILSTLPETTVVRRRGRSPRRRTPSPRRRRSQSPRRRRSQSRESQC

Q: “A3G-CFP fusion protein (from UniProt Q9HC16 1-384) (natural protein)” was tested. Which FRET efficiency (E EFF, %) did it give?
A: 18.5%

Q: And the FRET ratio (FR)?
A: 1.68
